The nature of the series: yeast display, Sf9 membrane polyspecificity reagent, FACS + sequencing; frameworks hold sequencing errors. Summed up: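 Using colony PCR, genes from sorted yeast display clones were amplified, then sequenced on MiSeq at 2 × 250 and filtered by CDR length. The clones had been stained with 10% biotinylated, detergent-solubilized Sf9 membrane reagent for 1 hour at 4 °C and sorted by FACS into low and high (top ~1%) gates on anti-HA and streptavidin fluorescence. Polyreactivity labels come from the gate of origin.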
For “QVQLVESGGGLVQAGGSLRLSCAASGRTFGKYAMGWYRQAPGKERELVATISRSGGSTYYADSVKGRFTISRDNAKNTVYLQMNSLKPEDTAVYYCNAVTSRYIWPPVLDRYHYWGQGTQVTVSS”, the “polyreactivity (PSR sort gate)” value was “high polyreactivity”.
The result for “QVQLVESGGGLVQAGGSLRLSCAASGRTFGLNVMGWYRPAPGKDRELVATISGVGSTNYADSVKGRFTISRDNAKNTVYLQMNSLKPEDTAVYYCAAGGTSGQEFGYWGQGTQVTVSS” reads “low polyreactivity”.
Regarding “QVQLVESGGGLVQAGGSLRLSCAASGRTFGLYSMGWYRQAPGKVRELVASIDWSDDN”, the “polyreactivity (PSR sort gate)” value is on record as “low polyreactivity”.
As to “QVQLVESGGGLVQAGGSLRLSCAASGRTFGNYAMGWYRQAPGKDRELVAALSTTGGRTSYADSVKGRFTISRDNAKNTVYLQMNSLKPEDTAVYYCNVYTTSQARRKRIDYDFWGQGTQVTVSS”, the “polyreactivity (PSR sort gate)” value was “high polyreactivity”.
For “QVQLVESGGGLVQAGGSLRLSCAASGRTFGNYVMGWYRQAPGKERELVAAIRSGTNTYYADSVKGRFTISRDNAKNTVYLQMNSLKPEDTAVYYCAAARYTKFDYWGQGTQVTVSS”, the “polyreactivity (PSR sort gate)” value was “high polyreactivity”.
On to “QVQLVESGGGLVQAGGSLRLSCAASGRTFGPNAMGWYRQAPGKERELVAAIRYSGGSTYYADSVKGRFTISRDNAKNTVYLQMNSLKPEDTAVYYCAADYVSYVGERGTLYVRYDYWGQGTQVTVSS”, for which the “polyreactivity (PSR sort gate)” value is given as “high polyreactivity”.
Consider “QVQLVESGGGLVQAGGSLRLSCAASGRTFGPNAMGWYRQAPGKERELVAAISGSGGSTYYADSVKGRFTISRDNAKNTVYLQMYSLKPEDTAVYYCAARHRQQKLDYWGQGTQVTVSS”, for which the “polyreactivity (PSR sort gate)” value is “high polyreactivity”.
The same measure for “QVQLVESGGGLVQAGGSLRLSCAASGRTFGPYAMGWYIQAPGKERELVAAITWSSGRTYYADSVKGRFTISRDNAKNTVYLQMNSLKPEDTAVYYCNKDRFYRNNYGYGYWGQGTQVTVSS”: “high polyreactivity”; for “QVQLVESGGGLVQAGGSLRLSCAASGRTFGPYAMGWYRQAPGKEREFVAAISYSGGSTYYADSVKGRFTISRDNAKNTVFLQMNSLKPEDTAVYYCAVDIDSNSGTRDYWGQGTQVTVSS”: “low polyreactivity”; for “QVQLVESGGGLVQAGGSLRLSCAASGRTFGPYAMGWYRQAPGKERELVAAISRSGSSTYYADSVKGRFTISRDTGKNNVYLQMNSLKPEDTAVYDCAVARSSPEYYYWGQGTQVTVSS”: “high polyreactivity”.
The same measure for “QVQLVESGGGLVQAGGSLRLSCAASGRTFGPYVMGWYRQAPGKERELVAAISFSGGSTYYADSVKGRFTISRDNAKNTVYLQMNSLKPEDTAVYYCAARAVGGVRGYRYDYWGQGTQVTVSS”: “high polyreactivity”; for “QVQLVESGGGLVQAGGSLRLSCAASGRTFGQNAMGWYRQAPGKERELVAAISWRGARTFYADSVKGRFTISRDNAKNTVYLQMNSLKPEDTAVYYCAARYSAYRRNVAYDYWGQGTQVTVSS”: “high polyreactivity”; for “QVQLVESGGGLVQAGGSLRLSCAASGRTFGQNTMGWYRQAPGIERELVAAINWSGGSTYYADSVKGRFTISRDNAKNTVYLQMNSLKPEDTAVYYCAVRGYWGQGTQVTVSS”: “low polyreactivity”.
The result for “QVQLVESGGGLVQAGGSLRLSCAASGRTFGRNAMGWYRQAPGKEREFVAAISRRGDTTYYADSVKGRFTISRDNAKNSVYLQMNSLKPEDTAVYYCNAAVIKDRFSWYYYWGQGTQVTVSS” reads “low polyreactivity”.
In the case of “QVQLVESGGGLVQAGGSLRLSCAASGRTFGRNAMGWYRQAPGKERELVAAISSDGGRTYYADSVKGRFTISRDNAKNTVYLQMNSLKPEDTAVYYCAKQRSYSDGGYWGQGTQVTVSS”, the “polyreactivity (PSR sort gate)” value is on record as “low polyreactivity”.
Regarding “QVQLVESGGGLVQAGGSLRLSCAASGRTFGRNAMGWYRQAPGKERELVAAISTSGSRTYYADSVKGRFTISRDNAKNTVYLQMNSLKPEDTAVYYCNAYGVSRGSYGTRGYWGQGTQVTVSS”, the “polyreactivity (PSR sort gate)” value is listed as “high polyreactivity”.
The same measure for “QVQLVESGGGLVQAGGSLRLSCAASGRTFGRNAMGWYRQAPGKVRELVAAINSDGSTYYADSVKGRFTISRDNAKNTVYLQMNSLKPEDTAVYYCAADTWVWTDYFRRFEYWGQGTQVTVSS”: “high polyreactivity”.
The result for “QVQLVESGGGLVQAGGSLRLSCAASGRTFGRYAMGWYRQAPGKERELVARISFSGGSTHYADSVKGRFTISRDNAKNTVYLQMNSLKPEDTAVYYCNTDWYRNWGKPYYYWGQGTQVTVSS” reads “high polyreactivity”; that for “QVQLVESGGGLVQAGGSLRLSCAASGRTFGRYTMGWYRQAPGKERELVAAITGRGGSTFYADSVKGRFTISRDNAKNTVYLQMNSLKPEDTAVYYCAARRTSIKDQFYYWGQGTQVTVSS”, “high polyreactivity”; that for “QVQLVESGGGLVQAGGSLRLSCAASGRTFGRYVMGWYRQAPGKERELVAAISKGGTSPYYADSVKGRFTISRDNAKNTVYLQMNSLKPEDTAVYYCAAGSFARYTYVPRYDYWGQGTQVTVSS”, “high polyreactivity”.
The same measure for “QVQLVESGGGLVQAGGSLRLSCAASGRTFGRYVMGWYRQAPGKERELVSAISKGGTSTYYADSVKGRFTISRDNAKNTVYLQMISLKPVVTAVYYCAAGSFARYTYVPRYDYWGQGTQVTVSS”: “high polyreactivity”; for “QVQLVESGGGLVQAGGSLRLSCAASGRTFGSYAMGCYRPAPVKEREVVAGITWRDGSTYYADSVKGRFTISRDNAKNTDYLQMNSLKPEDTAVYYCAKEAVRYYLFGMEYWGQGTQVTVSS”: “low polyreactivity”.
Consider “QVQLVESGGGLVQAGGSLRLSCAASGRTFGSYAMGWYRQAPGKEREFVAAIYYGGGRTYYADSVKGRFSISRDNAKNTVYLQMNSLKAVDTAVYYCAADGVYRYNYPYLYTYDYWGQGTQVTVSS”, for which the “polyreactivity (PSR sort gate)” value is “low polyreactivity”.
On to “QVQLVESGGGLVQAGGSLRLSCAASGRTFGSYVMGWYRQAPGKERELVAAITTSGGRTYYADSVKGRFTISRDNAKNTVYLQMNSLKPEDTAVYYCAAVQLTPTTLYRYYSWGQGTQVTVSS”, for which the “polyreactivity (PSR sort gate)” value was “high polyreactivity”.
With “QVQLVESGGGLVQAGGSLRLSCAASGRTFGTNAMGWYRQAPGKERELVASIDLSADSTYYADSVKGRFTISRDNAKNTVYLQMNSLKPEDTAVYYCNKDGYPWPPNLDYWGQGTQVTVSS”, the “polyreactivity (PSR sort gate)” value is on record as “low polyreactivity”.
“QVQLVESGGGLVQAGGSLRLSCAASGRTFGTYAMGWSRQAPGKERELVASITWSGTSTYYADSVKGRFTISRDNAKNTVYLQMNSLKPEDTAVYYCAAGWGYYRYYYWGQGTQVTVSS”: the “polyreactivity (PSR sort gate)” value is recorded as “high polyreactivity”.
The same measure for “QVQLVESGGGLVQAGGSLRLSCAASGRTFGVNAMGWYRQAPGKERELVAAINRGGSTYYADSVKGRFTISRDNAKNTVYLQMNSLKPEDTAVYYCAAYVSAVHRNSGYWGQGTQVTVSS”: “low polyreactivity”.
With “QVQLVESGGGLVQAGGSLRLSCAASGRTFGVNAMGWYRQAPGKERELVAAINWSADRTYYADSVKGRFTISRDNAKNTVYLQMNSLKPEDTAVYYCAVTQRWYWSYYGSDPSQYGYWGQGTQVTVSS”, the “polyreactivity (PSR sort gate)” value was “low polyreactivity”.
The result for “QVQLVESGGGLVQAGGSLRLSCAASGRTFGVYAMGWYRQAPGKERELVAAISRRAGNTYYADSVKGRFTISRDNAKNTVYLQMNSLKPEDTAVYYCAADFSRQYGYWGQGTQVTVSS” reads “high polyreactivity”.
The same measure for “QVQLVESGGGLVQAGGSLRLSCAASGRTFGVYAMGWYRQAPGKERELVADITSGGGTYYADSVKGRFTILRDNAKNTVYLQMNSLKPEDTAVYYCAARKWYYAYDYWGQGTQVTVSS”: “high polyreactivity”; for “QVQLVESGGGLVQAGGSLRLSCAASGRTFGWNVMGWYRQAPGKERELVAAISGSGGSTYYADSVKGRFTISRDNAKNTVYLQMNSLKPEDTAVYYCAALYGPGREYDYWGQGTQVTVSS”: “low polyreactivity”; for “QVQLVESGGGLVQAGGSLRLSCAASGRTFGWTVMGWYRPAPGKDRELVAAISGSGGSTYYADSVKGRFTISRDNAKNTVYLQMNSLKPEDTAVYYCAALYGPAREYDYWGQGTQVTVSS”: “low polyreactivity”.
The same measure for “QVQLVESGGGLVQAGGSLRLSCAASGRTFGWYAMGWYRQAPGKEREFVASINTIGGSTYYADSVKGRFTISRDNAKNTVYLQMNSLKPEDTAVYYCAAVGYVIPYDSVGYTTTDYYWGQGTQVTVSS”: “low polyreactivity”; for “QVQLVESGGGLVQAGGSLRLSCAASGRTFGWYAMGWYRQAPGKERELVAAITYPTGSTYYADSVKGRFTISRDNAKNTVYLQMNSLKPEDTAVYYCAAQGYISAGYKYDYWGQGTQVTVSS”: “low polyreactivity”; for “QVQLVESGGGLVQAGGSLRLSCAASGRTFGWYAMGWYRQAPGKERELVASITQRGGRTYYADSVKGRFTISRDNAKNTVYLQMNSLKPEDTAVYYCAAKTSPGMYYWGQGTQVTVSS”: “high polyreactivity”.
Take “QVQLVESGGGLVQAGGSLRLSCAASGRTFGWYTMGRYRQAPGKEREMVAGISSSGGSTYYADSVKGRFTISRDNAKNTVYLQMNSMKPEDTAVYYFARETYPHGLYYRPYDYWGQGTQVTVSS”: the “polyreactivity (PSR sort gate)” value was “low polyreactivity”.
The same measure for “QVQLVESGGGLVQAGGSLRLSCAASGRTFGYNAMGWYRQAPGKEREFVAAISGSGGRTYYADSVKGRFTISRDNAKNTVYLQMNSQKPEDTAVYYCAAGFGDGPGNGYYTRYSWDDDYWGQGTQVTVSS”: “low polyreactivity”; for “QVQLVESGGGLVQAGGSLRLSCAASGRTFGYNAMGWYRQAPGKERELVAAITSGGGTKYADSVKGRFTISRDNAKNTVYLQMNSLKPEDTAVYYCAATYLYEWSRFVYDGLYYWGQGTQVTVSS”: “low polyreactivity”.
The same measure for “QVQLVESGGGLVQAGGSLRLSCAASGRTFGYNAMGWYRQAPGKERELVATISSSTVSTSYADSVKGRFTISRDNAKNTVYLQMNSLKPEDPAVYYCNARSRVSPTERVPYDSWGQGTQVTVSS”: “low polyreactivity”; for “QVQLVESGGGLVQAGGSLRLSCAASGRTFGYNAMGWYRQAPGTERELVAAIRTIGDSTYYADSVKGRFTISRDNAKNTVYLQMNILKPVDTSVYYCAARKLRSRFDYWGQGTQVTVSS”: “high polyreactivity”.
The same measure for “QVQLVESGGGLVQAGGSLRLSCAASGRTFGYNGMGWYRQAPGKERELVAAINSGGNTNYADSVKGRFTISRDNAKNTVYLQMNSLKPEDTSVYYCAKYGTLYEPVPNEYDYWGQGTQVTVSS”: “low polyreactivity”.
